Laboratory results from PMC10240976 (2022).

Target: LC3B K65W
Assay: ITC

Binder: LQFEIDDEMEPLYNQAKQMRYGDY [LIR[Sp] peptide]
- Kd: 22.4 µM
